Source: paper doi:10.1101/098400 (bioRxiv, 2017)

Target: the molecule itself
Experiment: in vitro assembly seen by negative-stain transmission electron microscopy

B1: Rous Sarcoma Virus capsid protein (RSV CA), wild type (natural protein, Rous Sarcoma Virus (strain Prague C), UniProt P03322 240-476, looked up)
chain: PVVIKTEGPAWTPLEPKLITRLADTVRTKGLRSPITMAEVEALMSSPLLPHDVTNLMRVILGPAPYALWMDAWGVQLQTVIAAATRDPRHPANGQGRGERTNLNRLKGLADGMVGNPQGQAALLRPGELVAITASALQAFREVARLAEPAGPWADIMQGPSESFVDFANRLIKAVEGSDLPPSARAPVIIDCFRQKSQPDIQQLIRTAPSTLTTPGEIIKYVLDRQKTAPLTDQGIA
For B1, the “stoichiometry N” value was 6.
